This note sets out measurements from paper PMC7855293 (Nature structural & molecular biology, 2020).

Read-outs that look alike come from different tables or passages of the source.

Common to all, as to assay: cryo-EM structure
For series [1], the target named is FAP385 (Chlamydomonas reinhardtii).
In series [2] the target is LC8 (RSP22) (Chlamydomonas reinhardtii).
Series [3] deals with RSP16 (Chlamydomonas reinhardtii).
Series [4] concerns the molecule itself.
Series [5] concerns the molecule itself. This is another data set of the same source.

What is called stoichiometry N is the number of molecules, sites or subunits per partner or assembly. In series [1], FAP385 (natural protein) came in with a stoichiometry N of 2. With LC8 (RSP22) (natural protein), the stoichiometry N in series [2] was determined as 2. In turn, RSP16 (natural protein) yielded a stoichiometry N in series [3] of 2.

B1: DRC4 (natural protein, Chlamydomonas reinhardtii, UniProt Q7XJ96 1-471, looked up)
chain: MAPKKKGTKKESKKDAVATGDIEGASVEELNQKIGTLEKEKNKEEEYRNYMQLERDKINAFWEITKKDLEDRRAELRNKDREMEEMEERHQVEIKVYKQKVKHLLYEHQNNITTLKSDGELALKLQQDEYRKREGDLGKDKRNLKLELKEQELAHQDIIRQLKLEHAKEITKLRQEFEQQAKDLQSKYEKKMKMLRDDMELRRKQEIHEIEERKNTHINELMKKHERAFAEIKNYYNDITHNNLDLIKTLKEDVAEMKRREAANEKLMYEIAQDNKKLSEPLSRALKEVELLRQQLANYDKDKLSLAQTKARLLNAERQIKNLEWENEVLSQRFSKVQTERDELYGKFEASIYDVQQKTGLKSALLEKKVEALGEALEMKEAQLAEVLTAANLDPGTLAAINQRLEEVLDNKNQIIKALQYDVAKVSKAHNDLIRVYEAKLTEFGIPVDELGFRPLVTNTSTGPAGLVVGA
For B1, the “stoichiometry N” value in series [4] amounted to 2.

B2: p28 (natural protein, Chlamydomonas reinhardtii, UniProt Q39604 1-253, looked up)
chain: MIPPLSSLVRYDNPVLVSTSKDKGKGAKGTPGKKGALPPVEQKPGLTQTEDILNSILPPREWTEDGQLWVQYVSSTPATRLDVINLQEKLDQQLQQRQARETGICPIREELYAQTFDELIRQVTINCAERGLLLLRVRDEMRMTIAAYQTLYESAVAFGIRKALQTEQGKSEMESRITQLEGDVKDLERQVQEWKFKCEAIEKRESERREVEAKKHKDEVAYLENYAKQLKQQLETFLVPAKKGAPGAPAAAT
With B2, the “stoichiometry N” value in series [4] worked out at 2.

B3: RSP9 (natural protein, Chlamydomonas reinhardtii, UniProt Q27YU5 1-269, looked up)
chain: MVQLEPNITLVLKHLASCGAVVSAEQQAALDHSIPIKRIEAGLRSLTLWGRLTTLNGKDYLVAEGYNVASSKEGAAVYETKYFYSQDGARWSDLQPVDSETATRCARIKGMLSGDPAKNYELEEKDPNAPEPSPEAEEEVKPLVFQIPELAVLRCRVDAIATATSVIPTDSTILNAASQVVPNRLFAGAAYPEKLESYQHRFSLPGSGVTLSQDLRGTWAVQYDAFKGVAQVRSLLFPGYFFYYAANELTWGSLYVGDGLRNNDLIFML
Take B3: the “stoichiometry N” value in series [5] was found to be 2.
